From article PMC2855332

Molecular target: ovine PrP (VRQ allele), PrP^Sc aggregates from brains of prion-infected tg338 mice (sheep) (UniProt P23907)

ovine PrP (VRQ allele), PrP^Sc aggregates from brains of prion-infected tg338 mice (from UniProt P23907 25-233) (natural protein)
stoichiometry N: 12 to 30 PrP monomers
